{"source": "paper PMC8092243", "about": "“Cryo-EM Structures of CusA Reveal a Mechanism of Metal-Ion Export” (mBio, 2021)", "proteins": {"B1": {"name": "CusA heavy-metal efflux pump (natural protein, E. coli)", "chain": "MIEWIIRRSVANRFLVLMGALFLSIWGTWTIINTPVDALPDLSDVQVIIKTSYPGQAPQIVENQVTYPLTTTMLSVPGAKTVRGFSQFGDSYVYVIFEDGTDPYWARSRVLEYLNQVQGKLPAGVSAELGPDATGVGWIYEYALVDRSGKHDLADLRSLQDWFLKYELKTIPDVAEVASVGGVVKEYQVVIDPQRLAQYGISLAEVKSALDASNQEAGGSSIELAEAEYMVRASGYLQTLDDFNHIVLKASENGVPVYLRDVAKVQIGPEMRRGIAELNGEGEVAGGVVILRSGKNAREVIAAVKDKLETLKSSLPEGVEIVTTYDRSQLIDRAIDNLSGKLLEEFIVVAVVCALFLWHVRSALVAIISLPLGLCIAFIVMHFQGLNANIMSLGGIAIAVGAMVDAAIVMIENAHKRLEEWQHQHPDATLDNKTRWQVITDASVEVGPALFISLLIITLSFIPIFTLEGQEGRLFGPLAFTKTYAMAGAALLAIVVIPILMGYWIRGKIPPESSNPLNRFLIRVYHPLLLKVLHWPKTTLLVAALSVLTVLWPLNKVGGEFLPQINEGDLLYMPSTLPGISAAEAASMLQKTDKLIMSVPEVARVFGKTGKAETATDSAPLEMVETTIQLKPQEQWRPGMTMDKIIEELDNTVRLPGLANLWVPPIRNRIDMLSTGIKSPIGIKVSGTVLADIDAMAEQIEEVARTVPGVASALAERLEGGRYINVEINREKAARYGMTVADVQLFVTSAVGGAMVGETVEGIARYPINLRYPQSWRDSPQALRQLPILTPMKQQITLADVADIKVSTGPSMLKTENARPTSWIYIDARDRDMVSVVHDLQKAIAEKVQLKPGTSVAFSGQFELLERANHKLKLMVPMTLMIIFVLLYLAFRRVGEALLIISSVPFALVGGIWLLWWMGFHLSVATGTGFIALAGVAAEFGVVMLMYLRHAIEAVPSLNNPQTFSEQKLDEALYHGAVLRVRPKAMTVAVIIAGLLPILWGTGAGSEVMSRIAAPMIGGMITAPLLSLFIIPAAYKLMWLHRHRVRK", "notes": "CusA, heavy-metal efflux (HME) RND pump of Escherichia coli; the cusA gene cloned into pET15b; the cryo-EM models incorporate residues Ile-5 to Trp-1039; Homotrimer embedded in lipid nanodiscs, in the presence of Cu(I); The membrane scaffold protein MSP 1E3D1 of the nanodisc is not a studied partner; also called CusA membrane protein; CusA trimer"}}, "target": "the molecule itself", "assay": "cryo-EM structure; CusA in lipid nanodiscs (MSP 1E3D1, E. coli total extract lipid), 0.7 mg/ml (2 uM), incubated with 20 uM Cu(I), 20 mM HEPES-NaOH pH 7.0; four trimer classes (EEE, EEB, EBB, BBB) from one sample", "data": [{"protein": "B1", "values": [{"measurement": "stoichiometry N", "result": 3}]}]}
